Test results published in the supplement of paper PMC9170038.

These sequences were tested on MS2 coat protein (assay: apparent KD of MS2 coat protein; higher = weaker reporter binding). Conditions: Eterna round: R107; input ligand: arginine 13.2 mM.
Summary of the method: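 Illumina sequencing clusters served as templates for on-chip transcription of the designed RNA switches. SNAP-549-labelled MS2 coat protein was then titrated in twofold steps from 0.7 or 1.5 nM to 3 µM, allowing 0.8–1.5 h per step at first and 10–20 min per step later. The buffer held 100 mM Tris-HCl pH 7.5, 80 mM KCl and 4 mM MgCl2, without or with constant ligand. Apparent KD is the median per design of normalised cluster binding-curve fits.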

Row | Sequence | apparent KD of MS2 coat protein [nM]
1 | ACACGAAGCUGAAGGAGCGUGAUAUAAAUUUUUACAUGAGGAUCACCCAUGUUUCAUCGAUCACAGGUAGGUCGCAGAUGCGUGA [JR_SSArginiB_Sub013] | 15.2
2 | AACAUGAGGAUCACCCAUGUACAUUUCGAUCGAGGACCGGUACGGCCGCCACUCGAAAACAUGAGGAUCACCCAUGUUCAACAGG [Tryp A SS t4] | 65
3 | AGCGACAUGCGUGAUACCAGCUACAUGAGGAUCACCCAUGUAAGUAGGAAACUACUGUGUAGCCCUUGGCAGCACAGUGCAUGUC [Exclusion - Theophylline B (Freestyle 23)] | 10.3
4 | UGUAUGUGAUUUGAUACCAGACCAGCUGGUGUUCCAUGAGGAUCACCCAUGGAGGUUUGGGUCCCUUGGCAGCAAAUCGCAUACU [SS Theo B #24 Ms16] | 33.2
5 | UGAUAUAUGCGAAGGAGCGGGAAAUAUAUAUAUAUAAUCCUAACAUGAGGAUCACCCAUGUCCCAGGUAGGUCGCGCAUAUAUUG [12.D] | 58.7
6 | GAUACGCAGUCGGCCGCCACUUGCUAAGGUGACAAACCAAAACAUGAGGAUCACCCAUGUCUGAUAAGGACCGGGACCACCAUGG [theeternabot_sameState_MS2_Trp_B_14] | 69.7
7 | UCGCUCUGGGUGAAUCCCGGAGAUGUGGAAGGAGCGGACGAAAGUCCAGGUAGGUCGCCAUCGAACAUGAGGAUCACCCAUGUAC [Same State - Arginine A (Freestyle 25)] | 13.3
8 | AUACGGAACAGAAGGAGCGCACCGACAUGAGGAUCACCCAUGUGGGAUGGGACUCUUUUGGUGCAGGUAGGUCGCUGUCACGCAU [Maistile] | 129
9 | GCCGCGGCCGCGAUACACAUGGGUGUGUAACGAGGACCGGUACGGCCGCCACUCGAGAUGGUGUACAUGAGGAUCACCCAUGUAC [Exclusion Tryp A GF14] | 10.5
10 | AAUCUGUCGGGUGAUACCAGCCUCGGCGCAUCUCGCACCGAACAUGAGGAUCACCCAUGUGGCCCUUGGCAGCACAUGACAAAUC [Ermateus] | 113
11 | CUACAUUUGUAGAAACCGGUCACCGUUACUCGAGGACCGGUACGGCCGCCACUCGUGUCACGUGAUACAUGAGGAUCACCCAUGU [Tryptophan A 11] | 28.9
12 | AGCCGAACCACGGCCGCCACUGUAGACGUGACGAAAGUCGCGUCAACAUGAGGAUCACCCAUGUACAGGACCGGGUGGUCCGGCA [Omei Trp B SS A v2] | 9.09
13 | CCGUUUUAUGGCGACAUAGGGCGGACUGAAGGAGCGGGAUAAAACCCAGGUAGGUCGCAGAGAUCCACAUGAGGAUCACCCAUGU [!0.X] | 35.9
14 | UAUCCACAUGAGGAUCACCCAUGUAGGGAAGGAGCGGUGAUUUCACCAGGUAGGUCGCCUUGCUGAGGGUAGCCGGUGGAAUCGU [Exclusion - Arginine A (Freestyle 32)] | 24.4
15 | GCACCAGGUACGGAUACCAGACGCUGCCGAUUGGGUGGACAUGAGGAUCACCCAUGUAAUGUCCCUUGGCAGCCGUACCUGGUGC [#17 Exclusion-TheophyllineB] | 13.5
16 | AAAUAAAACUGACAUACUGACCCAGUGGAAGGAGCGCACGAGGGUGCAGGUAGGUCGCCACAUGAGGAUCACCCAUGUCACGGAA [Esesinonla] | 56
17 | CACAUUUUUAGAAGGGCGGUUUCACUCCUGCGAGGACCGGUACGGCCGCCACUCGACAUGAGGAUCACCCAUGUGGAGAAGUUAG [Laesedti] | 18.4

Same assay, conditions: Eterna round: R107; input ligand: none

Row | Sequence | apparent KD of MS2 coat protein [nM]
18 | ACACGAAGCUGAAGGAGCGUGAUAUAAAUUUUUACAUGAGGAUCACCCAUGUUUCAUCGAUCACAGGUAGGUCGCAGAUGCGUGA [JR_SSArginiB_Sub013] | 14.4
19 | UGUAUGUGAUUUGAUACCAGACCAGCUGGUGUUCCAUGAGGAUCACCCAUGGAGGUUUGGGUCCCUUGGCAGCAAAUCGCAUACU [SS Theo B #24 Ms16] | 25.2
20 | UGAUAUAUGCGAAGGAGCGGGAAAUAUAUAUAUAUAAUCCUAACAUGAGGAUCACCCAUGUCCCAGGUAGGUCGCGCAUAUAUUG [12.D] | 64.8
21 | UCGCUCUGGGUGAAUCCCGGAGAUGUGGAAGGAGCGGACGAAAGUCCAGGUAGGUCGCCAUCGAACAUGAGGAUCACCCAUGUAC [Same State - Arginine A (Freestyle 25)] | 88.8
22 | AUACGGAACAGAAGGAGCGCACCGACAUGAGGAUCACCCAUGUGGGAUGGGACUCUUUUGGUGCAGGUAGGUCGCUGUCACGCAU [Maistile] | 35
23 | GCCGCGGCCGCGAUACACAUGGGUGUGUAACGAGGACCGGUACGGCCGCCACUCGAGAUGGUGUACAUGAGGAUCACCCAUGUAC [Exclusion Tryp A GF14] | 14.5
24 | AGCCGAACCACGGCCGCCACUGUAGACGUGACGAAAGUCGCGUCAACAUGAGGAUCACCCAUGUACAGGACCGGGUGGUCCGGCA [Omei Trp B SS A v2] | 8.68
25 | CCGUUUUAUGGCGACAUAGGGCGGACUGAAGGAGCGGGAUAAAACCCAGGUAGGUCGCAGAGAUCCACAUGAGGAUCACCCAUGU [!0.X] | 38
26 | UAUCCACAUGAGGAUCACCCAUGUAGGGAAGGAGCGGUGAUUUCACCAGGUAGGUCGCCUUGCUGAGGGUAGCCGGUGGAAUCGU [Exclusion - Arginine A (Freestyle 32)] | 19.7
27 | GCACCAGGUACGGAUACCAGACGCUGCCGAUUGGGUGGACAUGAGGAUCACCCAUGUAAUGUCCCUUGGCAGCCGUACCUGGUGC [#17 Exclusion-TheophyllineB] | 13.8
28 | AAAUAAAACUGACAUACUGACCCAGUGGAAGGAGCGCACGAGGGUGCAGGUAGGUCGCCACAUGAGGAUCACCCAUGUCACGGAA [Esesinonla] | 91.9

Same assay, conditions: Eterna round: R107; input ligand: theophylline 20 uM

Row | Sequence | apparent KD of MS2 coat protein [nM]
29 | ACACGAAGCUGAAGGAGCGUGAUAUAAAUUUUUACAUGAGGAUCACCCAUGUUUCAUCGAUCACAGGUAGGUCGCAGAUGCGUGA [JR_SSArginiB_Sub013] | 16.9
30 | AACAUGAGGAUCACCCAUGUACAUUUCGAUCGAGGACCGGUACGGCCGCCACUCGAAAACAUGAGGAUCACCCAUGUUCAACAGG [Tryp A SS t4] | 336
31 | AGCGACAUGCGUGAUACCAGCUACAUGAGGAUCACCCAUGUAAGUAGGAAACUACUGUGUAGCCCUUGGCAGCACAGUGCAUGUC [Exclusion - Theophylline B (Freestyle 23)] | 14
32 | UGUAUGUGAUUUGAUACCAGACCAGCUGGUGUUCCAUGAGGAUCACCCAUGGAGGUUUGGGUCCCUUGGCAGCAAAUCGCAUACU [SS Theo B #24 Ms16] | 34
33 | UGAUAUAUGCGAAGGAGCGGGAAAUAUAUAUAUAUAAUCCUAACAUGAGGAUCACCCAUGUCCCAGGUAGGUCGCGCAUAUAUUG [12.D] | 78.5
34 | GAUACGCAGUCGGCCGCCACUUGCUAAGGUGACAAACCAAAACAUGAGGAUCACCCAUGUCUGAUAAGGACCGGGACCACCAUGG [theeternabot_sameState_MS2_Trp_B_14] | 124
35 | UCGCUCUGGGUGAAUCCCGGAGAUGUGGAAGGAGCGGACGAAAGUCCAGGUAGGUCGCCAUCGAACAUGAGGAUCACCCAUGUAC [Same State - Arginine A (Freestyle 25)] | 338
36 | AUACGGAACAGAAGGAGCGCACCGACAUGAGGAUCACCCAUGUGGGAUGGGACUCUUUUGGUGCAGGUAGGUCGCUGUCACGCAU [Maistile] | 51.9
